Experimental data reported in publication PMC5081248.

Columns and labels:
[1] = biological target: Andes virus (ANDV) glycoprotein C, wild type, from virus-like particles (Andes virus strain Chi-7913); assay: sucrose gradient sedimentation
[2] = biological target: Puumala virus (PUUV) glycoprotein C ectodomain, soluble GC (residues 659-1106 of GPC) (Puumala virus P360 strain); assay: crystal structure

## Andes virus (ANDV) glycoprotein C, wild type, from virus-like particles (natural protein)
[1]
  stoichiometry N: 3

## Puumala virus (PUUV) glycoprotein C ectodomain, soluble GC (residues 659-1106 of GPC) (domain or fragment)
[2]
  stoichiometry N: 3
